For series [1] the following is noted: reference [14]; cited from earlier work.
Another series has as its system blood platelets. As to conditions: reference [21]; cited from earlier work.
Series [2] is classed as in vitro ADME, human. The procedure:
The following assay buffer was used: 100 mM sodium phosphate, 150 mM NaCl, 5% bovine serum albumin, 0.1% unspecified sheep IgG, 0.1% sodium azide, pH 7.4.
As a standard material chemically synthesized peptide (peptide PAY 33) was used which corresponds to positions 132-164 of vasopressin-neurophysin 2-copeptin precursor. The standard was diluted in normal horse serum (Sigma). […]
In the test tubes 100 μl of standards or sample as well as 100 μl of assay buffer was pipetted. The tubes were incubated for two hours at 22° C. using gentle rotation. After washing 4 times with 1 ml of washing buffer (0.1% Tween 20), the supernatant was discarded. Then 200 μl of assay buffer, containing 1 million RLU (relative light units) of MA70-tagged antibody was added and incubated for a further two hours under gentle rotation at 22° C. After washing 4 times with 1 ml of washing buffer (0.1% Tween 20), the chemiluminescence bound to the tube was determined in a luminometer (Berthold, LB952T, basic reagents Brahms AG).
Using the software MULTICALC® (Spline Fit), the concentrations of the samples were determined.
The term copeptin immunoreactivity describes the amount of substrate detected by the developed sandwich immunoassay. The sandwich immunoassay uses antibodies raised against positions 132-147 and 149-164 of the vasopressin-neurophysin 2-copeptin-precursor for detection of the substrate. A typical standard curve for the developed assay is described in FIG. 1. Using the assay concentrations above 50 pg/ml copeptin immunoreactivity in plasma or serum can be determined quantitatively.

Read-outs that look alike come from different tables or passages of the source. Where no end group is shown, it is not given here.

Take `NC(=O)CC[C@@H]1NC(=O)[C@H](Cc2ccccc2)NC(=O)[C@H](Cc2ccc(O)cc2)NC(=O)[C@@H](N)CSSC[C@@H](C(=O)N2CCC[C@H]2C(=O)N[C@@H](CCCN=C(N)N)C(=O)NCC(N)=O)NC(=O)[C@H](CC(N)=O)NC1=O` [vasopressin]: the half-life in vivo in series [1] was 24 min. The “fraction bound to blood platelets” value in the series with blood platelets is “More than 90%”.

For the compound “copeptin: C-terminal glycoprotein of the VP prohormone, 39 amino acids plus sugar moiety; measured as endogenous copeptin immunoreactivity (ASDRSNATQLDGPAGALLLRLVQLAGAPEPFEPAQPDAY; also: glycosylated (sugar moiety); UniProt P01185 126-164, looked up)”, the “Recovery (%)” value in series [2] (plasma (n = 5), storage 1 d/4° C.) is 103.4%; in series [2] (plasma (n = 5), storage 1 d/RT), 99.9%; in series [2] (plasma (n = 5), storage 2 d/4° C.), 101.6%; in series [2] (plasma (n = 5), storage 2 d/RT) it was 104.9%; in series [2] (serum (n = 3), storage 1 d/4° C.), 98.0%; in series [2] (serum (n = 3), storage 1 d/RT), 94.1%. The “Recovery (%)” value was determined as 99.2% in series [2] (serum (n = 3), storage 2 d/4° C.) and 103.7% in series [2] (serum (n = 3), storage 2 d/RT).

The record behind these values is patent US7807397B2, “Diagnostic method for disorders using copeptin” (B.R.A.H.M.S Aktiengesellschaft, priority 2004, dated 2010).
